In article PMC5817353, “Iron Sulfur and Molybdenum Cofactor Enzymes Regulate the Drosophila Life Cycle by Controlling Cell Metabolism” (Frontiers in Physiology, 2018):

Target: Drosophila Nfs1^Δ1–53/Isd11/IscU complex (Drosophila melanogaster, UniProt Q9VKD3 54-462; O46098 1-92; Q9VHK6 1-154)
Assay: cell-based or functional assay

Sequence of Drosophila Nfs1^Δ1–53/Isd11/IscU complex (Q9VKD3 54-462, stated change not applied, chain 1 of 3): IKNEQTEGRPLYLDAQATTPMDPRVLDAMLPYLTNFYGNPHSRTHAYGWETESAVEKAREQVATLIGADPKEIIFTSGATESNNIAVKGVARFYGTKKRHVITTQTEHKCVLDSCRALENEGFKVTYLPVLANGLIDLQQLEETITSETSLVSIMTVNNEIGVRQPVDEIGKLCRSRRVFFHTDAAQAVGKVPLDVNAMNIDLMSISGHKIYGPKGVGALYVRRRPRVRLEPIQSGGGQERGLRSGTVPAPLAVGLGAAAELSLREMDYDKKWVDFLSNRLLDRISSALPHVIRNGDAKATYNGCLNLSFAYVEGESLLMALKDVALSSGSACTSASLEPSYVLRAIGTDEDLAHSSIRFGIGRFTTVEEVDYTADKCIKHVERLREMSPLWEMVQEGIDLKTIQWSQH
Sequence of Drosophila Nfs1^Δ1–53/Isd11/IscU complex (O46098 whole entry, stated change not applied, chain 2 of 3): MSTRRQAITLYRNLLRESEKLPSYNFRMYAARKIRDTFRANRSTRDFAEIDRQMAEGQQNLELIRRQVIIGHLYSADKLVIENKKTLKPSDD
Sequence of Drosophila Nfs1^Δ1–53/Isd11/IscU complex (Q9VHK6 whole entry, stated change not applied, chain 3 of 3): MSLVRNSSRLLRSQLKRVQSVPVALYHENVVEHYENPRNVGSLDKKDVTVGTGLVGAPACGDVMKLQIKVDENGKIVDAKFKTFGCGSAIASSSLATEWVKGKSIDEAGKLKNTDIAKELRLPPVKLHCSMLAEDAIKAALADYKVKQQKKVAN

B1: human frataxin (FXN) (natural protein, UniProt Q16595 42-210, looked up)
chain: LRTDIDATCTPRRASSNQRGLNQIWNVKKQSVYLMNLRKSGTLGHPGSLDETTYERLAEETLDSLAEFFEDLADKPYTFEDYDVSFGSGVLTVKLGGDLGTYVINKQTPNKQIWLSSPSSGPKRYDWTGKNWVYSHDGVSLHELLAAELTKALKTKLDLSSLAYSGKDA
  L-cysteine desulfurase activity (total sulfide produced, methylene blue) of the IscU/Nfs1^Δ1–53/Isd11 complex on addition of human frataxin, 1:3 [Nfs1]:[FXN], anaerobic, 10 min at 23°C: 6 fold
